Target: Lucy-Flag-rsstr3-TAS2R14-HSV (rat | human) (UniProt P30936)
Sequence of UniProt P30936 (P30936 whole entry): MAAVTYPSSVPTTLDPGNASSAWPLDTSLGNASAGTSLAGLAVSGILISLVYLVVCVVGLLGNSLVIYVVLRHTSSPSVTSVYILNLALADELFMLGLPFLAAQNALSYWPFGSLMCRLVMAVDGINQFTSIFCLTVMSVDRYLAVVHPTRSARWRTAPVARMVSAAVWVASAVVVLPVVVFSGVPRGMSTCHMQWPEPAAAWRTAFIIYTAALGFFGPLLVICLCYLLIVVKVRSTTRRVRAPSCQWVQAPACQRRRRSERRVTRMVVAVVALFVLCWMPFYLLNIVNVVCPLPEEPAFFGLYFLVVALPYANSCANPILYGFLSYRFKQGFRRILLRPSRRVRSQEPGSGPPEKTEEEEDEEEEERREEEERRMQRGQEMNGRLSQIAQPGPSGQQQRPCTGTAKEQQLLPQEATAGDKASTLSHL

impairment by ISO (10 uM) of the relaxation of HASM cells (endogenous receptors) to the TAS2R14 agonist FFA (100 uM), magnetic twisting cytometry: 50%
Substance: HA-β2AR (from UniProt P07550 1-413) (receptor)

— article PMC5016158
